Tests used:
[1] = test system: NorMMPR (norbornene monomer functionalized with the random peptide R-MMP)
[2] = test system: NorMMPD (norbornene monomer functionalized with the D-MMP peptide)
[3] = test system: NorMMPL (norbornene monomer functionalized with the L-MMP peptide)

Chain of MMP-9 (chain, as listed by the source): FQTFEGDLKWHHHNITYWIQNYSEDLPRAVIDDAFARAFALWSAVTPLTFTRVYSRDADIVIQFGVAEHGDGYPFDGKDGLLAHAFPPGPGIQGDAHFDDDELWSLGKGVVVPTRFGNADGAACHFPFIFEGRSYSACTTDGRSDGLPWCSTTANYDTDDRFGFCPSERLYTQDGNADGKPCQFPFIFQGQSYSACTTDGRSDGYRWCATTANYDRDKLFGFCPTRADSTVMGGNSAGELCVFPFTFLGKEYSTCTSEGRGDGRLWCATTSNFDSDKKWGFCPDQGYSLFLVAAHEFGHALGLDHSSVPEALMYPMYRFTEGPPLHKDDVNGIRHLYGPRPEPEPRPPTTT

## MMP-9
[1]
  MMP-9 cleavage assay (HPLC after 24 hours of incubation with MMP-9 at 37° C.; 0.5 µM MMP-9 : 500 µM NorMMP): remained intact
[2]
  MMP-9 cleavage assay (HPLC after 24 hours of incubation with MMP-9 at 37° C.; 0.5 µM MMP-9 : 500 µM NorMMP): remained intact
[3]
  MMP-9 cleavage assay (HPLC after 24 hours of incubation with MMP-9 at 37° C.; 0.5 µM MMP-9 : 500 µM NorMMP): NorMMPL was completely cleaved

— patent US20240293316
